{
  "source": "patent US20240024505",
  "proteins": {"B1": {"name": "PAPPA2 from conditioned media (protein)", "chain": "PPEESNQNGGEGSYREAETFNSQVGLPILYFSGRRERLLLRPEVLAEIPREAFTVEAWVKPEGGQNNPAIIAGVFDNCSHTVSDKGWALGIRSGKDKGKRDARFFFSLCTDRVKKATILISHSRYQPGTWTHVAATYDGRHMALYVDGTQVASSLDQSGPLNSPFMASCRSLLLGGDSSEDGHYFRGHLGTLVFWSTALPQSHFQHSSQHSSGEEEATDLVLTASFEPVNTEWVPFRDEKYPRLEVLQGFEPEPEILSPLQPPLCGQTVCDNVELISQYNGYWPLRGEKVIRYQVVNICDDEGLNPIVSEEQIRLQHEALNEAFSRYNISWQLSVHQVHNSTLRHRVVLVNCEPSKIGNDHCDPECEHPLTGYDGGDCRLQGRCYSWNRRDGLCHVECNNMLNDFDDGDCCDPQVADVRKTCFDPDSPKRAYMSVKELKEALQLNSTHFLNIYFASSVREDLAGAATWPWDKDAVTHLGGIVLSPAYYGMPGHTDTMIHEVGHVLGLYHVFKGVSERESCNDPCKETVPSMETGDLCADTAPTPKSELCREPEPTSDTCGFTRFPGAPFTNYMSYTDDNCTDNFTPNQVARMHCYLDLVYQQWTESRKPTPIPIPPMVIGQTNKSLTIHWLPPISGVVYDRASGSLCGACTEDGTFRQYVHTASSRRVCDSSGYWTPEEAVGPPDVDQPCEPSLQAWSPEVHLYHMNMTVPCPTEGCSLELLFQHPVQADTLTLWVTSFFMESSQVLFDTEILLENKESVHLGPLDTFCDIPLTIKLHVDGKVSGVKVYTFDERIEIDAALLTSQPHSPLCSGCRPVRYQVLRDPPFASGLPVVVTHSHRKFTDVEVTPGQMYQYQVLAEAGGELGEASPPLNHIHGAPYCGDGKVSERLGEECDDGDLVSGDGCSKVCELEEGFNCVGEPSLCYMYEGDGICEPFERKTSIVDCGIYTPKGYLDQWATRAYSSHEDKKKCPVSLVTGEPHSLICTSYHPDLPNHRPLTGWFPCVASENETQDDRSEQPEGSLKKEDEVWLKVCFNRPGEARAIFIFLTTDGLVPGEHQQPTVTLYLTDVRGSNHSLGTYGLSCQHNPLIINVTHHQNVLFHHTTSVLLNFSSPRVGISAVALRTSSRIGLSAPSNCISEDEGQNHQGQSCIHRPCGKQDSCPSLLLDHADVVNCTSIGPGLMKCAITCQRGFALQASSGQYIRPMQKEILLTCSSGHWDQNVSCLPVDCGVPDPSLVNYANFSCSEGTKFLKRCSISCVPPAKLQGLSPWLTCLEDGLWSLPEVYCKLECDAPPIILNANLLLPHCLQDNHDVGTICKYECKPGYYVAESAEGKVRNKLLKIQCLEGGIWEQGSCIPVVCEPPPPVFEGMYECTNGFSLDSQCVLNCNQEREKLPILCTKEGLWTQEFKLCENLQGECPPPPSELNSVEYKCEQGYGIGAVCSPLCVIPPSDPVMLPENITADTLEHWMEPVKVQSIVCTGRRQWHPDPVLVHCIQSCEPFQADGWCDTINNRAYCHYDGGDCCSSTLSSKKVIPFAADCDLDECTCRDPKAEENQ"}},
  "key": {"[1]": {"target": "recombinant IGFBP-3, P17936", "sequence (P17936 28-291)": "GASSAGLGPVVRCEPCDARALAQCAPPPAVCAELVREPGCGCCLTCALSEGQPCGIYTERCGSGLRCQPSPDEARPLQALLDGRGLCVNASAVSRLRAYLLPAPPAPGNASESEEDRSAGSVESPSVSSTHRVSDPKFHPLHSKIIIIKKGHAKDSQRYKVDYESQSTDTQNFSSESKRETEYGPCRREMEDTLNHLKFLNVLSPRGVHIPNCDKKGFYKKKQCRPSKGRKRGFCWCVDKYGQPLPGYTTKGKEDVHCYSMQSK"}, "[2]": {"target": "endogenous IGFBP-3 in human synovial fluid, P17936", "sequence (P17936 28-291)": "as above"}},
  "data": [
    {"protein": "B1", "values": [
      {"measurement": "IGF-1 signaling (AP-1 driven bioluminescence) in the presence of IGFBP-3", "setting": "[1]", "value": "Treatment with PAPPA2 allows for robust IGF-1 signaling in the modeled healthy and disease-state"},
      {"measurement": "protease activity: intact IGFBP-3 by ELISA", "setting": "[1]", "value": "PAPPA2 from conditioned media efficiently cleaves IGFBP-3, as measured by an ELISA for intact IGFBP-3, with and without bound IGF-1"},
      {"measurement": "protease activity: intact IGFBP-3 in synovial fluid by ELISA", "setting": "[2]", "value": "Treatment of healthy or diseased human synovial fluid with conditioned media containing PAPPA2 results in a significant decrease in intact IGFBP-3"}
    ]}
  ]
}
